{
  "source": "FireProtDB (doi:10.1021/bi034798l)",
  "proteins": {"B1": {"name": "SH2 domain-containing protein 1A wild type, O60880 (protein)", "chain": "MDAVAVYHGKISRETGEKLLLATGLDGSYLLRDSESVPGVYCLCVLYHGYIYTYRVSQTETGSWSAETAPGVHKRYFRKIKNLISAFQKPDQGIVIPLQYPVEKKSSARSTQGTTGIREDPDVCLKAP"}},
  "settings": "Homo sapiens; pH 7.4; Thermal; CD; Phosphate buffer saline; whole UniProt chain shown",
  "data": [
    {"protein": "B1", "values": [
      {"measurement": "Tm", "value": 57.8, "unit": "°C"}
    ]}
  ]
}
